Here are results for 1 molecule from paper PMC3731569 (Cell Research, 2013).

The target in this assay is Human DPP4 extracellular domain (residues 39-766) (human, UniProt P27487 39-766). Kind of assay: […], ~10 mg/ml in HBS.
Chain of Human DPP4 extracellular domain (residues 39-766) (P27487 39-766): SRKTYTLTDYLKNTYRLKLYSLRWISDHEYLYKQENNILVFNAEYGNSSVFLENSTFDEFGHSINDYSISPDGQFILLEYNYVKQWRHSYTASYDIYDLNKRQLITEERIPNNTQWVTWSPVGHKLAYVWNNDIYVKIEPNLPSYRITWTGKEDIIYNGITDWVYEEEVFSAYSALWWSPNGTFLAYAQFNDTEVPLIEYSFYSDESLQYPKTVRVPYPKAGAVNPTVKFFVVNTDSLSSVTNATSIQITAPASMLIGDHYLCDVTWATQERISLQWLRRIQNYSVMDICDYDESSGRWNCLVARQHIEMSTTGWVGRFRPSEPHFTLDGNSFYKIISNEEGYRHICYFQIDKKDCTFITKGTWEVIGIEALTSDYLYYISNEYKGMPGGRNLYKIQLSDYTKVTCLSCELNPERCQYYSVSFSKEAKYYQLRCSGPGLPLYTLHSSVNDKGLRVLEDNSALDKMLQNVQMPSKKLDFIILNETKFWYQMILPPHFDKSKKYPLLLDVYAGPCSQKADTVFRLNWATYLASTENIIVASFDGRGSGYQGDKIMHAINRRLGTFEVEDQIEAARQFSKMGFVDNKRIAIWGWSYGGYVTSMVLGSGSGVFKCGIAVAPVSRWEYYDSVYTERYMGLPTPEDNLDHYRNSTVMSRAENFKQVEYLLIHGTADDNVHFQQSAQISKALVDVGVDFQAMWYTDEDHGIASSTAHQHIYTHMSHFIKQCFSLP

B1: MERS-CoV RBD (E367 to Y606) (domain or fragment)
chain: EAKPSGSVVEQAEGVECDFSPLLSGTPPQVYNFKRLVFTNCNYNLTKLLSLFSVNDFTCSQISPAAIASNCYSSLILDYFSYPLSMKSDLSVSSAGPISQFNYKQSFSNPTCLILATVPHNLTTITKPLKYSYINKCSRFLSDDRTEVPQLVNANQYSPCVSIVPSTVWEDGDYYRKQLSPLEGGGWLVASGSTVAMTEQLQMGFGITVQYGTDTNSVCPKLEFANDTKIASQLGNCVEY
In the case of B1, the binding result was “binds”.
